Tests used:
[1] = system: VZV-induced pain model in rats; assay: VZV-induced pain model in rats, mechanical allodynia (von Frey) test; type: in vivo, rat; details: for 50% PWT (paw withdrawal threshold), analgetic effect: vs placebo
Procedure: A summary of the method for inducing pain model in rats by means of subcutaneous VZV inoculation is provided hereinafter. Briefly, male Sprague Dawley (SD) rats were deeply anesthetized by intraperitoneal injection of a Zoletil R: 50 (30 mg/kg)/xylazine (6 mg/kg) anesthetic at an injection volume of 6 mL/kg, and then the virus inoculation was performed by subcutaneous injection at the footpad area. The infection dose was 22800 TCID50 per animal, and the infection volume was 150 μL for all rats.
Administration was performed on alternate days. Briefly, the test articles were administered by subcutaneous injection at the footpad area on Day 1 and Day 3, respectively. As for Group 2, the administration of SEQ ID NO: 29 was initiated from the first concentration. Namely, the first concentration (10 μg/mL) was administered on Day 1, and the second concentration (20 μg/mL) was administered on Day 3. Pain was measured once after each administration.
Mechanical allodynia tests (also called “von Frey tests”) for pain measurements were performed on the rats one hour after administration of the test articles on Day 1 and Day 3, respectively. In the behavioral test for rats, mechanical allodynia is expressed as the 50% paw withdrawal threshold (PWT), which is calculated according to the following formula:
[formula] • wherein • Xf=final test fiber value used in the test • k=tabular value for the pattern of positive/negative responses (Chaplan et al. 1994, page 62) • δ=mean difference.
Briefly, the rats were placed individually in plexiglass boxes with a grid at the bottom to ensure that the rats' feet could be tested. The rats were acclimated to the environment for 15 minutes prior to the test. After the acclimation was completed, pain (mechanical allodynia) was tested on the center of the sole of the left hind foot of the rats using test fibers. The test fibers included 8 test strengths: 3.61 (0.4 g), 3.84 (0.6 g), 4.08 (lg), 4.31 (2 g), 4.56 (4 g), 4.74 (6 g), 4.93 (8 g) and 5.18 (15 g). During the test, the test fibers were pressed vertically against the skin and forces were applied to bend the fibers for 6-8 seconds with a 5-second interval between each test. During the test, a pain response was recorded if the animals quickly withdrew their feet. The pain response was also recorded if the animal withdrew their feet as the test fibers left the animal's skin. The pain response was not recorded if the animal moved or ambulated, and the test should be repeated. The test was started with 4.31 (2 g). If the animal had pain response, the next test should be performed with a test fiber with a lower strength: if the animal has no pain response, the next test should be performed with a test fiber with a higher strength. The maximum strength of the tested fibers was 5.18 (15 g). The test results were recorded in a table, wherein the presence of pain response was recorded as “x”, and the absence of pain response was recorded as “0”.
The rats were randomly divided into 2 groups, with 8 rats in the placebo group (Group 1, administered with vehicle (normal saline)) and 8 rats in the treatment group (Group 2, administered with 30 mg SEQ ID NO: 29/kg). Briefly, the test articles were administered to the rats on a single day by intravenous injection.
Mechanical allodynia tests were performed on the rats 0.5 h after administration of the test articles according to the method as recited in Example 1, respectively.
The rats were randomly divided into 3 groups, with 8 rats in the placebo group (Group 1, administered with vehicle (normal saline)) and 16 rats in the treatment groups (Groups 2 and 3, 8 rats/group, administered with various polypeptides). Briefly, vehicle (normal saline) was administered to the rats from Group 1 and various polypeptides were administered to the rats from Group 2 (SEQ ID: 29, SEQ ID: 57 and SEQ ID: 49; 10 mg polypeptide/kg) and 3 (SEQ ID: 75 and SEQ ID: 28: 10 mg polypeptide/kg) on a single day by intravenous injection.

[2] = system: bone pain model induced by Walker 256 breast cancer cells in rats; assay: Bone pain model induced by Walker 256 breast cancer cells in rats, mechanical allodynia test; type: in vivo, rat; details: Wistar rats; for pain thresholds (50% PWT) of treatment group vs model group: 60 mg/kg i.v. once a day
Procedure: 28 female Wistar rats in total were randomly divided into 3 groups based on body weights, with 8 rats in the Sham group (Group 1, administered with vehicle (normal saline)), 10 rats in the model group (Group 2, administered with vehicle (normal saline)) and 10 rats in the treatment group (Group 3, administered with 60 mg SEQ ID NO: 29/kg).
A summary of the method for inducing bone pain model in rats by means of intratibial injection of a suspension of Walker 256 breast cancer cells is provided hereinafter. Briefly, the rats were anesthetized, then 4 μL of a suspension of Walker 256 cancer cells (containing about 4× 10^5 cells) was injected into the tibia cavity of the right hind limb of the rats (day 0). The rats in Sham group were injected with an equal volume of normal saline.
After injection of cancer cells (day 0), administration was started on the next day (day 1) and performed once a day for a consecutive period of 14 days (day 1, day 2 . . , day 14, respectively).
The rats were subjected to mechanical allodynia tests 1 h before and after administration of the test articles according to the method as recited in Example 1 on day 7 (D7) and day 14 (D14), respectively.

B1: SEQ ID NO: 29: exemplary polypeptide of the present disclosure; artificial polypeptide of formula (I) X-Y (protein)
chain: SEKKQPVDLGLLEEDDEFEEFPAEDWAGLDEDEDAHVWEDNWDDDNVEDDFSNQLRATVLLMILVAETPYGAYVLHQKGRMASAFLAA
[1]; 10 mg polypeptide/kg i.v., single administration, tested 0.5 h after administration
  analgetic effect (50% PWT): apparent analgetic effect
[1]; 30 mg/kg i.v., single administration, tested 0.5 h after administration
  50% PWT (paw withdrawal threshold), analgetic effect: significantly increased the 50% PWT values of the rats
[1]; s.c. (footpad) 10 then 20 μg/mL, 50 μL, tested 1 h after administration
  50% PWT (paw withdrawal threshold), analgetic effect: increased the 50% PWT values of the rats in a dose-dependent manner
[2]; 60 mg/kg i.v. once a day for 14 days
  course of pain thresholds (50% PWT) of treatment group vs model group: increased gradually with the increase of the number of administrations
[2]; 1 h after administration on day 7 (D7)
  pain thresholds (50% PWT) of treatment group vs model group: increased significantly
[2]; 1 h after administration on day 14 (D14)
  pain thresholds (50% PWT) of treatment group vs model group: increased significantly
[2]; before administration on day 7 (D7)
  pain thresholds (50% PWT) of treatment group vs model group: no significant difference
[2]; before administration on day 14 (D14)
  pain thresholds (50% PWT) of treatment group vs model group: increased significantly

— patent publication US20260022144A1, “ANALGESIC POLYPEPTIDE” (Shanghai Puyou Biomedical Co., Ltd., priority 2022, published 2026)
